# Data from PMC9375587.
# Columns and labels:
# [1] = target: 2 CP-dimeric MPO complex (CP-MPO-MPO-CP) (human (endogenous in donor blood plasma) | human) (UniProt P00450); test: solid-phase enzyme assay
# [2] = target: Myeloperoxidase (MPO), native, dimeric (human) (UniProt P05164); test: SPR
Kd [1],Kd [2],koff [2],kon [2],Substance
46 nM,,,,Alpha-thrombin (FIIa) (enzyme)
,327 nM,0.422 s⁻¹,12900 M⁻¹ s⁻¹,Ceruloplasmin proteolyzed by thrombin (FIIa) (from UniProt P00450 501-906) (natural protein)
